Data from IntAct's records for PubMed 31515488.

Columns and labels:
grn_human GRN = grn_human GRN (UniProt P28799)
trip6_human TRIP6 = trip6_human TRIP6 (UniProt Q15654)
gpix_human GP9 = gpix_human GP9 (UniProt P14770)
rgs20_human RGS20 = rgs20_human RGS20 (UniProt O76081)
k1h1_human KRT31 = k1h1_human KRT31 (UniProt Q15323)
trim1_human MID2 = trim1_human MID2 (UniProt Q9UJV3)
rnf14_human RNF14 = rnf14_human RNF14 (UniProt Q9UBS8)
rn115_human RNF115 = rn115_human RNF115 (UniProt Q9Y4L5)
dtx2_human DTX2 = dtx2_human DTX2 (UniProt Q86UW9)
Sequence of dtx2_human DTX2 (Q86UW9 whole entry): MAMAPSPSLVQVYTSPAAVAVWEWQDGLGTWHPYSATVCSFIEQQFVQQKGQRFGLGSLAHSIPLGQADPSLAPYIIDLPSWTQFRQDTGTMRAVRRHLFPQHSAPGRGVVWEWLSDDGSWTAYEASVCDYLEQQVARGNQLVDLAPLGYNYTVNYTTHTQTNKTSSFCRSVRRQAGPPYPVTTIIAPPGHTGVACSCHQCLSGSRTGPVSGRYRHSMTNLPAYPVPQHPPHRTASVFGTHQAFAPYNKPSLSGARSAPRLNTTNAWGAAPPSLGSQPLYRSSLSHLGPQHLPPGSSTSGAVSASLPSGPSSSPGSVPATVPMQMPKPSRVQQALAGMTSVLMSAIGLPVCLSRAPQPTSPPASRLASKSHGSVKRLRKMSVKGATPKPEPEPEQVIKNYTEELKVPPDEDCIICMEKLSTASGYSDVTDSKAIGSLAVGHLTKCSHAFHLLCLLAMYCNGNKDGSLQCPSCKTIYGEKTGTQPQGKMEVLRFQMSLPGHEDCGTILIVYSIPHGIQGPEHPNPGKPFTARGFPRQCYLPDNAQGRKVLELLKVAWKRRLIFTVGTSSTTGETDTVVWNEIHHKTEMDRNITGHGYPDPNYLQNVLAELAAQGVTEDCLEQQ

otub1_human OTUB1 = otub1_human OTUB1 (UniProt Q96FW1)
Sequence of otub1_human OTUB1 (Q96FW1 whole entry): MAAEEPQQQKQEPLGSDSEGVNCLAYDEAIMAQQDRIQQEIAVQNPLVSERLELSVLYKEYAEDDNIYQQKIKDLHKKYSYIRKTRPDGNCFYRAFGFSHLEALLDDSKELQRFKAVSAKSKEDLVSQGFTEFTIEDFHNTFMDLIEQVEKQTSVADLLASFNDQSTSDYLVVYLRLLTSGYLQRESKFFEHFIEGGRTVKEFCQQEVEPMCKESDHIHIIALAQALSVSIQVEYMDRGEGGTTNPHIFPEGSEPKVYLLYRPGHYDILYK

Measured: effect of a mutation on the interaction

Sequence of Ubiquitin-conjugating enzyme E2 D4 (Homo sapiens), Q9Y2X8 G27S (Q9Y2X8 whole entry G27S): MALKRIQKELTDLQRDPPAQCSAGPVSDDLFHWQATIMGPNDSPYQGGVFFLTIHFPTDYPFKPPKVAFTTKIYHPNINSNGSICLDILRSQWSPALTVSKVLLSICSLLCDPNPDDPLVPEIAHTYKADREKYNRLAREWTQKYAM
Sequence of Homeobox protein Hox-A1 (Homo sapiens), P49639 S98R (P49639 whole entry S98R): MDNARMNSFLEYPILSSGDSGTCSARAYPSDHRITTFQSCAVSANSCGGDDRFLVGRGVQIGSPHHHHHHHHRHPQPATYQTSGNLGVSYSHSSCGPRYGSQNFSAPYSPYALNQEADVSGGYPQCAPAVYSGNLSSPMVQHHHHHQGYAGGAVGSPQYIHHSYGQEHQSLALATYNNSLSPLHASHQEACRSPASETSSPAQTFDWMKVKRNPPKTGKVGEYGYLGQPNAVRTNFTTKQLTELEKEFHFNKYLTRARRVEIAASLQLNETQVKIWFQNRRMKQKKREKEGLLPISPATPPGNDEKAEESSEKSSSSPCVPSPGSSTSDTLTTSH
Sequence of gpix_human GP9 (P14770 whole entry): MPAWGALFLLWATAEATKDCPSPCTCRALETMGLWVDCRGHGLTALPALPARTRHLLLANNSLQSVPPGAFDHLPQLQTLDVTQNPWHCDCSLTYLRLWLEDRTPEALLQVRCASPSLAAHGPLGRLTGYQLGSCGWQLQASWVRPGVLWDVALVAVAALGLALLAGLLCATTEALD
Sequence of rgs20_human RGS20 (O76081 whole entry): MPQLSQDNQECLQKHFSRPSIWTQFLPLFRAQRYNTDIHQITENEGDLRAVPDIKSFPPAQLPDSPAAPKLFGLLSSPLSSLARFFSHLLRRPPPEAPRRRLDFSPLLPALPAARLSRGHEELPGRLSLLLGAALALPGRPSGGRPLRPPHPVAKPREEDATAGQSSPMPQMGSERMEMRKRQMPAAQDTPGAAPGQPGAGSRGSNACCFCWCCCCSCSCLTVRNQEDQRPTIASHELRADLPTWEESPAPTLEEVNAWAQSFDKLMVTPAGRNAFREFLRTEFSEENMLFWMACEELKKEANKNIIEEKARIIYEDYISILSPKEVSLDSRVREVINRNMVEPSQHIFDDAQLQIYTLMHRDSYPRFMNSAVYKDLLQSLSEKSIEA
Sequence of rn115_human RNF115 (Q9Y4L5 whole entry): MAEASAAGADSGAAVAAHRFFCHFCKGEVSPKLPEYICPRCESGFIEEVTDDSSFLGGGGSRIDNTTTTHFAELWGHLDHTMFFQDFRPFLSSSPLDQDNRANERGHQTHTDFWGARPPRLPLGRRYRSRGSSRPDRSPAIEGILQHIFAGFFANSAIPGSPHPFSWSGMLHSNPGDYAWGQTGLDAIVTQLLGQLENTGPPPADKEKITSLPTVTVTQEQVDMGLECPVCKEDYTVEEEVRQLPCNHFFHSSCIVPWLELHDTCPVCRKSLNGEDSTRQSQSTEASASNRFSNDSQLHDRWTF
Sequence of rnf14_human RNF14 (Q9UBS8 whole entry): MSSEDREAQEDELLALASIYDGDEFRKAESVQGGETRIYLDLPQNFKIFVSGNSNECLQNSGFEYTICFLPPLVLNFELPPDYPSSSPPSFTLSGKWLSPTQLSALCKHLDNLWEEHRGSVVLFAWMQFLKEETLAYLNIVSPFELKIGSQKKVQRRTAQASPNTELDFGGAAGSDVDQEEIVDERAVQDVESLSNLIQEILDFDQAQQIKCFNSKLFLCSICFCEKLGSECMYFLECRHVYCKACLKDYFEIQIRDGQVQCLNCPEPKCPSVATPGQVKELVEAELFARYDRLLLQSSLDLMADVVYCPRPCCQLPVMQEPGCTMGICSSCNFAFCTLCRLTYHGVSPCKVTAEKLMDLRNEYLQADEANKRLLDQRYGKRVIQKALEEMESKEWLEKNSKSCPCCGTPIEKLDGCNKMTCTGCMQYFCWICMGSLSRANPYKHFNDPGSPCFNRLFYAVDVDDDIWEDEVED
Sequence of trip6_human TRIP6 (Q15654 whole entry): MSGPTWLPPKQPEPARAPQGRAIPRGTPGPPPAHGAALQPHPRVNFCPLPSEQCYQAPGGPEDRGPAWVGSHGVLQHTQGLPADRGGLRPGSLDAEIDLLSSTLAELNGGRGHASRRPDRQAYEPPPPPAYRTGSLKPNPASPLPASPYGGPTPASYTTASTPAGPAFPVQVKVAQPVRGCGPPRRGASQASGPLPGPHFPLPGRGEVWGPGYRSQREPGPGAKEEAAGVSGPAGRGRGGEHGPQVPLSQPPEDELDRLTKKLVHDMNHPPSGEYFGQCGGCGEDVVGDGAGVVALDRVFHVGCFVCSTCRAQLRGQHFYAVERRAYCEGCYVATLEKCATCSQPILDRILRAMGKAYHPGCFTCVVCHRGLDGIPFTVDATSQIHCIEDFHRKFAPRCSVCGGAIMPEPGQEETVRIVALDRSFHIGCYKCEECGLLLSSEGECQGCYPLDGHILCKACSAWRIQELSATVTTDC
Sequence of trim1_human MID2 (Q9UJV3 whole entry): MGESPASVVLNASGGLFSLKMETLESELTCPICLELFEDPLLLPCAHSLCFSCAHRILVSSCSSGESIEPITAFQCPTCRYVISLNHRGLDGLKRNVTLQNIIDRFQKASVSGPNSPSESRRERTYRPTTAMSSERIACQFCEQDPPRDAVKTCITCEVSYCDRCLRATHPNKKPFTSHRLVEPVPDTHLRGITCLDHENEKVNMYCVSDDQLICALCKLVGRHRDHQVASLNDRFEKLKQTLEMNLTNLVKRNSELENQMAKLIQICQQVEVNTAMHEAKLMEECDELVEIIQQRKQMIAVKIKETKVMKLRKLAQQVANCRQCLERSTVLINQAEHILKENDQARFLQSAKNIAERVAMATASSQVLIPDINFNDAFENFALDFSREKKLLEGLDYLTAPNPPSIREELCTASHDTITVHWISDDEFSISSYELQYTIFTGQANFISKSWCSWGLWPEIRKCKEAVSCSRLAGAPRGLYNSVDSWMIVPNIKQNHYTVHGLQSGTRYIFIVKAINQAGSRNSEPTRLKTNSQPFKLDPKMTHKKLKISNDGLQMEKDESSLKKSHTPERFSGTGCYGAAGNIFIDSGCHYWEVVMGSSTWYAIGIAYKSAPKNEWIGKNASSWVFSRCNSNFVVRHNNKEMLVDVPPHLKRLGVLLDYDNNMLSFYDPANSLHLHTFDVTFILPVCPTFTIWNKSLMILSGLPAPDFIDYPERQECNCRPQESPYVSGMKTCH
Sequence of grn_human GRN (P28799 whole entry): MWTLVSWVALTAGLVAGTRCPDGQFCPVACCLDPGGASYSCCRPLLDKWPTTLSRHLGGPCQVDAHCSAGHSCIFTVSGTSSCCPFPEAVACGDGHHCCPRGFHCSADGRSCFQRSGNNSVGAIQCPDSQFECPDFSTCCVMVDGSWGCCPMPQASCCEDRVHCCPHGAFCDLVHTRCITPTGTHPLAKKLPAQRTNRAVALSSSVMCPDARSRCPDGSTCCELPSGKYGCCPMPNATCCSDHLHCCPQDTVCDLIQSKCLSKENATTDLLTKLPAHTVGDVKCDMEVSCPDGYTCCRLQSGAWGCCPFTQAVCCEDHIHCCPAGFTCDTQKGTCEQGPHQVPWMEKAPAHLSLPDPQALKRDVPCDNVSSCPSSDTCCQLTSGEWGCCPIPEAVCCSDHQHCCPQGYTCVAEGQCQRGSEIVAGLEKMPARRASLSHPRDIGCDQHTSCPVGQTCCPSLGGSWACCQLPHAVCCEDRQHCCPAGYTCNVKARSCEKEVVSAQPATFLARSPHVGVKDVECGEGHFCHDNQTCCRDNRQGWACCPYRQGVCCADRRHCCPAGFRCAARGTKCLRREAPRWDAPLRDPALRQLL
Sequence of k1h1_human KRT31 (Q15323 whole entry): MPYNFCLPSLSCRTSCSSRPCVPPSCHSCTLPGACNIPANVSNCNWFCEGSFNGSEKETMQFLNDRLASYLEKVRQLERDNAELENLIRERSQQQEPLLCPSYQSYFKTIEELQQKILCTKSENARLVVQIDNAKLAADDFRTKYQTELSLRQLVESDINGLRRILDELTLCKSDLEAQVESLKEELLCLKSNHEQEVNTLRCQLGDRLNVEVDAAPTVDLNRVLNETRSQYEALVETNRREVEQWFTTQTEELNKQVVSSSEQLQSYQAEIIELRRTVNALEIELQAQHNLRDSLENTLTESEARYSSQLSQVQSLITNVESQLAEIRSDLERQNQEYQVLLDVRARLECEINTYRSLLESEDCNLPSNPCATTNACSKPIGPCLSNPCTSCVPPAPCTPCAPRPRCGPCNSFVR

Homeobox protein Hox-A1 (Homo sapiens), P49639 S98R
with no effect: grn_human GRN | trip6_human TRIP6 | gpix_human GP9 | rgs20_human RGS20 | k1h1_human KRT31

Ubiquitin-conjugating enzyme E2 D4 (Homo sapiens), Q9Y2X8 G27S
with no effect: trim1_human MID2 | rnf14_human RNF14 | rn115_human RNF115 | dtx2_human DTX2 | otub1_human OTUB1
